# Biological target: His6-DDB1 (human, UniProt Q16531 1-1140)
# Test: SEC + other: negative stain EM
# His6-DDB1, sequence (Q16531 whole entry): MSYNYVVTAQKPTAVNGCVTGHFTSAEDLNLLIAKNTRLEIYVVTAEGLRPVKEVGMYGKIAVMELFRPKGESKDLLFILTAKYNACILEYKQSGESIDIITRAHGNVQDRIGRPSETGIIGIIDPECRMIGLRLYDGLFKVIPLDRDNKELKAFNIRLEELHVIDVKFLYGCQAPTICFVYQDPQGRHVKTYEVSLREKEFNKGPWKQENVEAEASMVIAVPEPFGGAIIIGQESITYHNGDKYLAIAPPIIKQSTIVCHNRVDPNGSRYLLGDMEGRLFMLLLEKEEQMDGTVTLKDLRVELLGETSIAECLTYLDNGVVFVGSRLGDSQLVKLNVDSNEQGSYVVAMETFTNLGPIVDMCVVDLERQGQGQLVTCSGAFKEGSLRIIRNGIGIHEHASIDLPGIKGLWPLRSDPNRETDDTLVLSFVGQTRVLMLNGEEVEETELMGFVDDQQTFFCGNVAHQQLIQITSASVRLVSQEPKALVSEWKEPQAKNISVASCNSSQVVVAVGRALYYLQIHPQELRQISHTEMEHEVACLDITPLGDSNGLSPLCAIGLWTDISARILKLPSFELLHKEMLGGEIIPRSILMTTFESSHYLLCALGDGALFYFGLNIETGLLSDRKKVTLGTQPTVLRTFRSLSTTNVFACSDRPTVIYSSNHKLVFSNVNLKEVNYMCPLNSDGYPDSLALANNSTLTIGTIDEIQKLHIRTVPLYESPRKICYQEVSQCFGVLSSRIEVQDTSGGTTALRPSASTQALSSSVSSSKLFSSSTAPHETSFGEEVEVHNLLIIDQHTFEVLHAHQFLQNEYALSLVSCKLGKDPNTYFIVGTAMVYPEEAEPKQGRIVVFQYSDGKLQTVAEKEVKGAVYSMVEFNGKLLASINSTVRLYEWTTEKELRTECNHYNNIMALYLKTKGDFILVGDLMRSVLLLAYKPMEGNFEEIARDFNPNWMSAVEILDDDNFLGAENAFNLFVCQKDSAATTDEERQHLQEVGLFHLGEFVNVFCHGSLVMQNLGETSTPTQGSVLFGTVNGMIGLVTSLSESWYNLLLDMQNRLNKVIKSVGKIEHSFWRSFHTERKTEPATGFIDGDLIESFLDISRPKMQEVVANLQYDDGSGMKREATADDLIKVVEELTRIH
row,binding result,Binder
1,binds,"MBP-AMBRA1^WD40 (residues M1-N204 directly fused to S853-G1044), wild type (domain or fragment, human, UniProt Q9C0C7 1-204, looked up) MKVVPEKNAVRILWGRERGARAMGAQRLLQELVEDKTRWMKWEGKRVELPDSPRSTFLLAFSPDRTLLASTHVNHNIYITEVKTGKCVHSLIGHRRTPWCVTFHPTISGLIASGCLDGEVRIWDLHGGSESWFTDSNNAIASLAFHPTAQLLLIATANEIHFWDWSRREPFAVVKTASEMERVRLVRFDPLGHYLLTAIVNPSNSNIANTTYRLQWWDFTKFDLPEISNASVNVLVQNCKIYNDASCDISADGQLLAAFIPSSQRGFPDEGILAVYSLAPHNLGEMLYTKRFGPNAISVSLSPMGRYVMVGLASRRILLHPSTEHMVAQVFRLQQAHGGETSMRRVFNVLYPMPADQRRHVSINSARWLPEPGLGLAYGTNKGDLVICRPEALNSG"
2,binds,"MBP-AMBRA1^WD40 W99R (domain or fragment, human, UniProt Q9C0C7 1-204, looked up) MKVVPEKNAVRILWGRERGARAMGAQRLLQELVEDKTRWMKWEGKRVELPDSPRSTFLLAFSPDRTLLASTHVNHNIYITEVKTGKCVHSLIGHRRTPRCVTFHPTISGLIASGCLDGEVRIWDLHGGSESWFTDSNNAIASLAFHPTAQLLLIATANEIHFWDWSRREPFAVVKTASEMERVRLVRFDPLGHYLLTAIVNPSNSNIANTTYRLQWWDFTKFDLPEISNASVNVLVQNCKIYNDASCDISADGQLLAAFIPSSQRGFPDEGILAVYSLAPHNLGEMLYTKRFGPNAISVSLSPMGRYVMVGLASRRILLHPSTEHMVAQVFRLQQAHGGETSMRRVFNVLYPMPADQRRHVSINSARWLPEPGLGLAYGTNKGDLVICRPEALNSG"
3,binds,"MBP-AMBRA1^WD40 H75A/R96A (domain or fragment, human, UniProt Q9C0C7 1-204, looked up) MKVVPEKNAVRILWGRERGARAMGAQRLLQELVEDKTRWMKWEGKRVELPDSPRSTFLLAFSPDRTLLASTHVNANIYITEVKTGKCVHSLIGHRATPWCVTFHPTISGLIASGCLDGEVRIWDLHGGSESWFTDSNNAIASLAFHPTAQLLLIATANEIHFWDWSRREPFAVVKTASEMERVRLVRFDPLGHYLLTAIVNPSNSNIANTTYRLQWWDFTKFDLPEISNASVNVLVQNCKIYNDASCDISADGQLLAAFIPSSQRGFPDEGILAVYSLAPHNLGEMLYTKRFGPNAISVSLSPMGRYVMVGLASRRILLHPSTEHMVAQVFRLQQAHGGETSMRRVFNVLYPMPADQRRHVSINSARWLPEPGLGLAYGTNKGDLVICRPEALNSG"
4,binds,"MBP-AMBRA1^WD40 F57A (domain or fragment, human, UniProt Q9C0C7 1-204, looked up) MKVVPEKNAVRILWGRERGARAMGAQRLLQELVEDKTRWMKWEGKRVELPDSPRSTALLAFSPDRTLLASTHVNHNIYITEVKTGKCVHSLIGHRRTPWCVTFHPTISGLIASGCLDGEVRIWDLHGGSESWFTDSNNAIASLAFHPTAQLLLIATANEIHFWDWSRREPFAVVKTASEMERVRLVRFDPLGHYLLTAIVNPSNSNIANTTYRLQWWDFTKFDLPEISNASVNVLVQNCKIYNDASCDISADGQLLAAFIPSSQRGFPDEGILAVYSLAPHNLGEMLYTKRFGPNAISVSLSPMGRYVMVGLASRRILLHPSTEHMVAQVFRLQQAHGGETSMRRVFNVLYPMPADQRRHVSINSARWLPEPGLGLAYGTNKGDLVICRPEALNSG"

# — publication doi:10.1101/2024.12.17.628619 (bioRxiv, 2024)
